Assay results from patent US20130158095.

Molecular target: TK substrate 1 (HTRF KinEASE-TK kit; Cisbio Inc.)

B1: EML4-ALK fusion polypeptide v1 having the FLAG tag at the N-terminus (protein)
chain: GFAGSLDDSISAASTSDVQDRLSALESRVQQQEDEITVLKAALADVLRRLAISEDHVASVKKSVSSKGQPSPRAVIPMSCITNGSGANRKPSHTSAVSIAGKETLSSAAKSGTEKKKEKPQGQREKKEESHSNDQSPQIRASPSPQPSSQPLQIHRQTPESKNATPTKSIKRPSPAEKSHNSWENSDDSRNKLSKIPSTPKLIPKVTKTADKHKDVIINQEGEYIKMFMRGRPITMFIPSDVDNYDDIRTELPPEKLKLEWAYGYRGKDCRANVYLLPTGEIVYFIASVVVLFNYEERTQRHYLGHTDCVKCLAIHPDKIRIATGQIAGVDKDGRPLQPHVRVWDSVTLSTLQIIGLGTFERGVGCLDFSKADSGVHLCVIDDSNEHMLTVWDWQKKAKGAEIKTTNEVVLAVEFHPTDANTIITCGKSHIFFWTWSGNSLTRKQGIFGKYEKPKFVQCLAFLGNGDVLTGDSGGVMLIWSKTTVEPTPGKGPKVYRRKHQELQAMQMELQSPEYKLSKLRTSTIMTDYNPNYCFAGKTSSISDLKEVPRKNITLIRGLGHGAFGEVYEGQVSGMPNDPSPLQVAVKTLPEVCSEQDELDFLMEALIISKFNHQNIVRCIGVSLQSLPRFILLELMAGGDLKSFLRETRPRPSQPSSLAMLDLLHVARDIACGCQYLEENHFIHRDIAARNCLLTCPGPGRVAKIGDFGMARDIYRASYYRKGGCAMLPVKWMPPEAFMEGIFTSKTDTWSFGVLLWEIFSLGYMPYPSKSNQEVLEFVTSGGRMDPPKNCPGPVYRIMTQCWQHQPEDRPNFAIILERIEYCTQDPDVINTALPIEYGPLVEEEEKVPVRPKDPEGVPPLLVSQQAKREEERSPAAPPPLPTTSSGKAAKKPTAAEVSVRVPRGPAVEGGHVNMAFSQSNPPSELHRVHGSRNKPTSLWNPTYGSWFTEKPTKKNNPIAKKEPHERGNLGLEGSCTVPPNVATGRLPGASLLLEPSSLTANMKEVPLFRLRHFPCGNVNYGYQQQGLPLEAATAPGAGHYEDTILKSKNSMNQPGP
count of HTRF (that is, phosphorylation of the peptide substrate): increased by about 12 times by the addition of ATP compare to no addition of ATP
